Reference: US6277383A, “Ryegrass pollen allergen” (University of Melbourne, priority 1995, dated 2001)

Tests used:
[1] = tested on: IgE antibodies of individual serum from 30 grass allergic patients; assay: Dot blot screening of recombinant allergens with 30 individual allergic sera; assay type: binding, human
Protocol: Two microliters of phage stocks of clones 12R, 13R and 19R and a non-recombinant lambda gt 11 were spotted onto a lawn of E. coli Y1090 induced with a nitrocellulose filter saturated with 10 mM IPTG. The protein blots were then probed with individual serum from 30 grass allergic patients. a=Lol p Ib.1, b=Lol p Ia, c=Lol p Ib.2 and d=non-recombinant lambda gt 11. [<]=individuals having higher level of IgE bound to Lol p Ib.2 than Lol p Ia and Lol p Ib.1. [1]=individuals having IgE specific to Lol p Ia. [2]=individuals having IgE specific to Lol p Ib.1 and Lol p Ib.2.
The relative allergenicity of Lol p Ia, Lol p Ib.1 and Lol p Ib.2 were tested using 30 individual allergic sera.

MAb 12.3 = assay: Antibody screening of lambda-gt 11 cDNA clones: binding of MAb 12.3
Protocol: Poly (A+) mRNA isolated from mature rye grass pollen by the phenol method ([…] and Michaels, (1984) Plant Mol. Biol. Rep., 2:24-28) was used to construct a cDNA library in the vector lambda-gt 11. The library was then screened with antibody probes to detect sequences expressing Group I proteins. E. coli […] transfected with 3×10^4 recombinant phages were plated and incubated at 42° C. for 3 h. The plates were overlaid with a dry 132 mm nitrocellulose (NC) filter previously soaked in 10 mm IPTG and transferred to 37° C. After incubation for 3 h the filters were carefully peeled off and incubated in 20 ml per filter of MTBS (10% w/v non-fat milk powder, 50 mm Tris-HCI, pH 7.6, 150 mM Nacl) for 30 min. at room temperature. A second set of NC filters was placed on phage plates and after incubating for 3 h were treated as above. Both sets of NC filters were tested for binding of MAb 40.1 to plaques by the method described in Huynh et al. (1985) In: DNA Cloning, a practical approach, Glover, D. M. (ed.) Vol. 1, pp. 49-78, IRL Press, Oxford, England. The antibody positive plaques were picked, purified, then replated and tested for binding to probes. The positive clones were plaque-purified and tested for IgE binding using sera from grass pollen-allergic subjects. Eighteen clones were selected as encoding proteins recognized by both Lol p I-specific MAbs and IgE antibodies (Table 1). The largest of the cDNA clones, 1.2kb in size, that expressed rye-grass allergenic protein was initially selected for further characterization and sequencing, and designated clone lambda-12R (FIG. 1a).

[2] = tested on: MAbs 3.2, 12.3, 21.3 and 40.1; assay: Recognition of cloned allergen 12R by MAbs (FIG. 1a); assay type: binding; details: MAbs 3.2, 12.3, 21.3, 40.1
Protocol: Poly (A+) mRNA isolated from mature rye grass pollen by the phenol method (Herrin and Michaels, (1984) Plant Mol. Biol. Rep., 2:24-28) was used to construct a cDNA library in the vector lambda-gt 11. The library was then screened with antibody probes to detect sequences expressing Group I proteins. E. coli Y1090 transfected with 3×10^4 recombinant phages were plated and incubated at 42° C. for 3 h. The plates were overlaid with a dry 132 mm nitrocellulose (NC) filter previously soaked in 10 mm IPTG and transferred to 37° C. After incubation for 3 h the filters were carefully peeled off and incubated in 20 ml per filter of MTBS (10% w/v non-fat milk powder, 50 mm Tris-HCI, pH 7.6, 150 mM Nacl) for 30 min. at room temperature. A second set of NC filters was placed on phage plates and after incubating for 3 h were treated as above. Both sets of NC filters were tested for binding of MAb 40.1 to plaques by the method described in Huynh et al. (1985) In: DNA Cloning, a practical approach, Glover, D. M. (ed.) Vol. 1, pp. 49-78, IRL Press, Oxford, England. The antibody positive plaques were picked, purified, then replated and tested for binding to probes. The positive clones were plaque-purified and tested for IgE binding using sera from grass pollen-allergic subjects. Eighteen clones were selected as encoding proteins recognized by both Lol p I-specific MAbs and IgE antibodies (Table 1). […]

[3] = tested on: specific IgE from pooled human allergic sera; assay: Immunological screening of clone 19R with sera; assay type: binding; details: plaque purified clone
From the text: Duplicate filters of the cDNA expression library in Example 1 were screened with specific IgE from pooled human allergic sera. The bound IgE was detected using ^125 I-labelled anti-human IgE (Kallestad Laboratories,Chaska, Minn.). The plaques that were antibody-positive on both of the duplicate filters were picked off, purified, and then replated and tested for binding to MAbs.

B1: Lol p Ib.1: protein encoded by the 12R clone (SEQ ID NO.: 2) (protein)
chain: MAVQKYTVALFLAVALVAGPAASYAADAGYTPAAAATPATPAATPAAAGGKATTDEQKLLEDVNAGFKAAVAAAANAPPADKFKIFEAAFSESSKGLLATSAAKAPGLIPKLDTAYDVAYKAAEGATPEAKYDAFVTALTEALRVIAGALEVHAVKPATEEVPAAKIPTGELQIVDKIDAAFKIAATAANAAPTNDKFTVFESAFNKALNECTGGAYETYKFIPSLEAAVKQAYAATVAAAPEVKYAVFEAALTKAITAMTQAQKAGKPAAAAATGAATVATGAATAAAGAATAAAGGYKA
- Patients with IgE antibodies reactive to the recombinant allergen [1]: 80%
- Affinity of MAb 12.3 (footnote of Table 1, in words) (MAb 12.3): high affinity

B2: Clone 12: 1.2 kb cDNA clone lambda-12R; its expressed protein is designated Lol p Ib.1 (protein)
chain: MAVQKYTVALFLAVALVAGPAASYAADAGYTPAAAATPATPAATPAAAGGKATTDEQKLLEDVNAGFKAAVAAAANAPPADKFKIFEAAFSESSKGLLATSAAKAPGLIPKLDTAYDVAYKAAEGATPEAKYDAFVTALTEALRVIAGALEVHAVKPATEEVPAAKIPTGELQIVDKIDAAFKIAATAANAAPTNDKFTVFESAFNKALNECTGGAYETYKFIPSLEAAVKQAYAATVAAAPEVKYAVFEAALTKAITAMTQAQKAGKPAAAAATGAATVATGAATAAAGAATAAAGGYKA
- Recognition by all four MAbs used in this study [2]: recognized

B3: clone 19R: lambda gt 11 cDNA clone encoding Lol p Ib.2 (protein)
chain: MAVQKHTVALFLAVALVAGPAASYAADAGYAPATPATPAAPATAATPATPATPATPAAVPSGKATTEEQKLIEKINAGFKAAVAAAAVVPPADKYKTFVETFGTATNKAFVEGLASGYADQSKNQLTSKLDAALKLAYEAAQGATPEAKYDAYVATLTEALRVIAGTLEVHAVKPAAEEVKVGAIPAAEVQLIDKVDAAYRTAATAANAAPANDKFTVFENTFNNAIKVSLGAAYDSYKFIPTLVAAVKQAYAAKQATAPEVKYTVSETALKKAVTAMSEAEKEATPAAAATATPTPAAATATATPAAAYATATPAAATATATPAAATATPAAAGGYKV
- Reaction with non-allergic sera [3]: not positive
- Binding of specific IgE in sera of ryegrass sensitive patients ([3]; pooled allergic sera): bind specific IgE

B4: Lol p Ib.2: protein encoded by clone 19R (SEQ ID NO.: 4) (protein)
chain: MAVQKHTVALFLAVALVAGPAASYAADAGYAPATPATPAAPATAATPATPATPATPAAVPSGKATTEEQKLIEKINAGFKAAVAAAAVVPPADKYKTFVETFGTATNKAFVEGLASGYADQSKNQLTSKLDAALKLAYEAAQGATPEAKYDAYVATLTEALRVIAGTLEVHAVKPAAEEVKVGAIPAAEVQLIDKVDAAYRTAATAANAAPANDKFTVFENTFNNAIKVSLGAAYDSYKFIPTLVAAVKQAYAAKQATAPEVKYTVSETALKKAVTAMSEAEKEATPAAAATATPTPAAATATATPAAAYATATPAAATATATPAAATATPAAAGGYKV
- Patients with IgE antibodies reactive to the recombinant allergen [1]: 80%
